{"source": "patent EP4631523A2", "binders": {"B1": {"name": "COR-001 antibody (antibody, human IgG1, kappa, V domains shown)", "VH": "EVQLVESGGGLVQPGGSLRLSCAASGFTISSNYMIWVRQAPGKGLEWVSDLYYYAGDTYYADSVKGRFTMSRDISKNTVYLQMNSLRAEDTAVYYCARWADDHPPWIDLWGRGTLVTVSS", "VL": "DIQMTQSPSTLSASVGDRVTITCRASQGISSWLAWYQQKPGKAPKVLIYKASTLESGVPSRFSGSGSGTEFTLTISSLQPDDFATYYCQQSWLGGSFGQGTKLEIKR"}}, "key": {"interleukin 6 (IL-6) [1]": {"biological_target": "interleukin 6 (IL-6) (UniProt P05231)", "sequence (P05231 30-212 limits assumed)": "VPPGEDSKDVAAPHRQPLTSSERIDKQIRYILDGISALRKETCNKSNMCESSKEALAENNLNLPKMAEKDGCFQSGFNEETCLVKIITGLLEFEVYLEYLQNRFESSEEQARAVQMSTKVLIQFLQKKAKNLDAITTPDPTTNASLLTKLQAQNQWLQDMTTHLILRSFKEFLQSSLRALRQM", "test": "IL-6 binding ELISA; 25±2°C, 6 months"}, "interleukin 6 (IL-6) [2]": {"biological_target": "interleukin 6 (IL-6) (UniProt P05231)", "test": "IL-6 binding ELISA; 25±2°C, 0 months"}, "interleukin 6 (IL-6) [3]": {"biological_target": "interleukin 6 (IL-6) (UniProt P05231)", "test": "IL-6 binding ELISA; 25±2°C, 3 months"}, "interleukin 6 (IL-6) [4]": {"biological_target": "interleukin 6 (IL-6) (UniProt P05231)", "test": "IL-6 binding ELISA; 25±2°C, 6 months", "remark": "listed apart in the source"}, "interleukin 6 (IL-6) [5]": {"biological_target": "interleukin 6 (IL-6) (UniProt P05231)", "test": "IL-6 binding ELISA; 25±2°C, 0 months", "remark": "listed apart in the source"}, "interleukin 6 (IL-6) [6]": {"biological_target": "interleukin 6 (IL-6) (UniProt P05231)", "test": "IL-6 binding ELISA; 25±2°C, 3 months", "remark": "listed apart in the source"}, "interleukin 6 (IL-6) [7]": {"biological_target": "interleukin 6 (IL-6) (UniProt P05231)", "test": "IL-6 binding ELISA; 25±2°C, 6 months", "remark": "listed apart in the source"}, "interleukin 6 (IL-6) [8]": {"biological_target": "interleukin 6 (IL-6) (UniProt P05231)", "test": "IL-6 binding ELISA; 25±2°C, 0 months", "remark": "listed apart in the source"}, "interleukin 6 (IL-6) [9]": {"biological_target": "interleukin 6 (IL-6) (UniProt P05231)", "test": "IL-6 binding ELISA; 25±2°C, 3 months", "remark": "listed apart in the source"}, "interleukin 6 (IL-6) [10]": {"biological_target": "interleukin 6 (IL-6) (UniProt P05231)", "test": "IL-6 binding ELISA; 25±2°C, 6 months", "remark": "listed apart in the source"}, "interleukin 6 (IL-6) [11]": {"biological_target": "interleukin 6 (IL-6) (UniProt P05231)", "test": "IL-6 binding ELISA; 25±2°C, 0 months", "remark": "listed apart in the source"}, "interleukin 6 (IL-6) [12]": {"biological_target": "interleukin 6 (IL-6) (UniProt P05231)", "test": "IL-6 binding ELISA; 25±2°C, 3 months", "remark": "listed apart in the source"}, "interleukin 6 (IL-6) [13]": {"biological_target": "interleukin 6 (IL-6) (UniProt P05231)", "test": "IL-6 binding ELISA; 25±2°C, 6 months", "remark": "listed apart in the source"}, "interleukin 6 (IL-6) [14]": {"biological_target": "interleukin 6 (IL-6) (UniProt P05231)", "test": "IL-6 binding ELISA; 40±2°C, 0 months"}, "interleukin 6 (IL-6) [15]": {"biological_target": "interleukin 6 (IL-6) (UniProt P05231)", "test": "IL-6 binding ELISA; 40±2°C, 3 months"}, "interleukin 6 (IL-6) [16]": {"biological_target": "interleukin 6 (IL-6) (UniProt P05231)", "test": "IL-6 binding ELISA; 40±2°C, 0 months", "remark": "listed apart in the source"}, "interleukin 6 (IL-6) [17]": {"biological_target": "interleukin 6 (IL-6) (UniProt P05231)", "test": "IL-6 binding ELISA; 40±2°C, 3 months", "remark": "listed apart in the source"}, "interleukin 6 (IL-6) [18]": {"biological_target": "interleukin 6 (IL-6) (UniProt P05231)", "test": "IL-6 binding ELISA; 40±2°C, 0 months", "remark": "listed apart in the source"}, "interleukin 6 (IL-6) [19]": {"biological_target": "interleukin 6 (IL-6) (UniProt P05231)", "test": "IL-6 binding ELISA; 40±2°C, 3 months", "remark": "listed apart in the source"}, "interleukin 6 (IL-6) [20]": {"biological_target": "interleukin 6 (IL-6) (UniProt P05231)", "test": "IL-6 binding ELISA; 40±2°C, 0 months", "remark": "listed apart in the source"}, "interleukin 6 (IL-6) [21]": {"biological_target": "interleukin 6 (IL-6) (UniProt P05231)", "test": "IL-6 binding ELISA; 40±2°C, 3 months", "remark": "listed apart in the source"}, "interleukin 6 (IL-6) [22]": {"biological_target": "interleukin 6 (IL-6) (UniProt P05231)", "test": "IL-6 binding ELISA; 40±2°C, 0 months", "remark": "listed apart in the source"}, "interleukin 6 (IL-6) [23]": {"biological_target": "interleukin 6 (IL-6) (UniProt P05231)", "test": "IL-6 binding ELISA; 40±2°C, 3 months", "remark": "listed apart in the source"}, "interleukin 6 (IL-6) [24]": {"biological_target": "interleukin 6 (IL-6) (UniProt P05231)", "test": "IL-6 binding ELISA; 5±3°C, 12 months"}, "interleukin 6 (IL-6) [25]": {"biological_target": "interleukin 6 (IL-6) (UniProt P05231)", "test": "IL-6 binding ELISA; 5±3°C, 12 months", "remark": "listed apart in the source"}, "interleukin 6 (IL-6) [26]": {"biological_target": "interleukin 6 (IL-6) (UniProt P05231)", "test": "IL-6 binding ELISA; 25±2°C, 12 months"}, "interleukin 6 (IL-6) [27]": {"biological_target": "interleukin 6 (IL-6) (UniProt P05231)", "test": "IL-6 binding ELISA, relative to a Phase I DS lot; 20 mg/mL formulation without methionine, T0 (frozen aliquot)"}, "interleukin 6 (IL-6) [28]": {"biological_target": "interleukin 6 (IL-6) (UniProt P05231)", "test": "IL-6 binding ELISA, relative to a Phase I DS lot; 50 mg/mL formulation without methionine, T0 (frozen aliquot)"}, "interleukin 6 (IL-6) [29]": {"biological_target": "interleukin 6 (IL-6) (UniProt P05231)", "test": "IL-6 binding ELISA, relative to a Phase I DS lot; 120 mg/mL formulation without methionine, T0 (frozen aliquot)"}, "interleukin 6 (IL-6) [30]": {"biological_target": "interleukin 6 (IL-6) (UniProt P05231)", "test": "IL-6 binding ELISA, relative to a Phase I DS lot; 120 mg/mL formulation without methionine, 9 months at 2 to 8°C"}, "interleukin 6 (IL-6) [31]": {"biological_target": "interleukin 6 (IL-6) (UniProt P05231)", "test": "IL-6 binding ELISA, relative to a Phase I DS lot; 20 mg/mL formulation without methionine, 12 months at 2 to 8°C"}, "interleukin 6 (IL-6) [32]": {"biological_target": "interleukin 6 (IL-6) (UniProt P05231)", "test": "IL-6 binding ELISA, relative to a Phase I DS lot; 50 mg/mL formulation without methionine, 12 months at 2 to 8°C"}}, "data": [{"binder": "B1", "values": [{"measurement": "IL-6 binding ELISA (% of Reference Standard)", "setting": "interleukin 6 (IL-6) [1]", "value": 82, "unit": "%"}, {"measurement": "IL-6 binding ELISA (% of Reference Standard)", "setting": "interleukin 6 (IL-6) [2]", "value": 103, "unit": "%"}, {"measurement": "IL-6 binding ELISA (% of Reference Standard)", "setting": "interleukin 6 (IL-6) [3]", "value": 84, "unit": "%"}, {"measurement": "IL-6 binding ELISA (% of Reference Standard)", "setting": "interleukin 6 (IL-6) [4]", "value": 100, "unit": "%"}, {"measurement": "IL-6 binding ELISA (% of Reference Standard)", "setting": "interleukin 6 (IL-6) [5]", "value": 91, "unit": "%"}, {"measurement": "IL-6 binding ELISA (% of Reference Standard)", "setting": "interleukin 6 (IL-6) [6]", "value": 90, "unit": "%"}, {"measurement": "IL-6 binding ELISA (% of Reference Standard)", "setting": "interleukin 6 (IL-6) [7]", "value": 92, "unit": "%"}, {"measurement": "IL-6 binding ELISA (% of Reference Standard)", "setting": "interleukin 6 (IL-6) [8]", "value": 96, "unit": "%"}, {"measurement": "IL-6 binding ELISA (% of Reference Standard)", "setting": "interleukin 6 (IL-6) [9]", "value": 91, "unit": "%"}, {"measurement": "IL-6 binding ELISA (% of Reference Standard)", "setting": "interleukin 6 (IL-6) [10]", "value": 88, "unit": "%"}, {"measurement": "IL-6 binding ELISA (% of Reference Standard)", "setting": "interleukin 6 (IL-6) [11]", "value": 94, "unit": "%"}, {"measurement": "IL-6 binding ELISA (% of Reference Standard)", "setting": "interleukin 6 (IL-6) [12]", "value": 102, "unit": "%"}, {"measurement": "IL-6 binding ELISA (% of Reference Standard)", "setting": "interleukin 6 (IL-6) [13]", "value": 81, "unit": "%"}, {"measurement": "IL-6 binding ELISA (% of Reference Standard)", "setting": "interleukin 6 (IL-6) [14]", "value": 97, "unit": "%"}, {"measurement": "IL-6 binding ELISA (% of Reference Standard)", "setting": "interleukin 6 (IL-6) [15]", "value": 78, "unit": "%"}, {"measurement": "IL-6 binding ELISA (% of Reference Standard)", "setting": "interleukin 6 (IL-6) [16]", "value": 103, "unit": "%"}, {"measurement": "IL-6 binding ELISA (% of Reference Standard)", "setting": "interleukin 6 (IL-6) [17]", "value": 94, "unit": "%"}, {"measurement": "IL-6 binding ELISA (% of Reference Standard)", "setting": "interleukin 6 (IL-6) [18]", "value": 91, "unit": "%"}, {"measurement": "IL-6 binding ELISA (% of Reference Standard)", "setting": "interleukin 6 (IL-6) [19]", "value": 86, "unit": "%"}, {"measurement": "IL-6 binding ELISA (% of Reference Standard)", "setting": "interleukin 6 (IL-6) [20]", "value": 96, "unit": "%"}, {"measurement": "IL-6 binding ELISA (% of Reference Standard)", "setting": "interleukin 6 (IL-6) [21]", "value": 97, "unit": "%"}, {"measurement": "IL-6 binding ELISA (% of Reference Standard)", "setting": "interleukin 6 (IL-6) [22]", "value": 94, "unit": "%"}, {"measurement": "IL-6 binding ELISA (% of Reference Standard)", "setting": "interleukin 6 (IL-6) [23]", "value": 99, "unit": "%"}, {"measurement": "IL-6 binding ELISA (% of Reference Standard)", "setting": "interleukin 6 (IL-6) [24]", "value": 95, "unit": "%"}, {"measurement": "IL-6 binding ELISA (% of Reference Standard)", "setting": "interleukin 6 (IL-6) [25]", "value": 98, "unit": "%"}, {"measurement": "IL-6 binding ELISA (% of Reference Standard)", "setting": "interleukin 6 (IL-6) [26]", "value": 95, "unit": "%"}, {"measurement": "IL-6 binding ELISA (% of assay control)", "setting": "interleukin 6 (IL-6) [27]", "value": 61, "unit": "%"}, {"measurement": "IL-6 binding ELISA (% of assay control)", "setting": "interleukin 6 (IL-6) [28]", "value": 70, "unit": "%"}, {"measurement": "IL-6 binding ELISA (% of assay control)", "setting": "interleukin 6 (IL-6) [29]", "value": 91, "unit": "%"}, {"measurement": "IL-6 binding ELISA (% of assay control)", "setting": "interleukin 6 (IL-6) [30]", "value": 79, "unit": "%"}, {"measurement": "IL-6 binding ELISA (% of assay control)", "setting": "interleukin 6 (IL-6) [31]", "value": 84, "unit": "%"}, {"measurement": "IL-6 binding ELISA (% of assay control)", "setting": "interleukin 6 (IL-6) [32]", "value": 89, "unit": "%"}]}]}
